{
  "source": "patent US20250002576A1",
  "binders": {"B1": {"name": "YU577-E08 (antibody, V domains shown)", "VH": "QVQLVQSGAEVKKPGASVKVSCKASGYTFTSYYMHWVRQAPGQGLEWMGIINPSGGSTSYAQKFQGRVTMTRDTSTSTVYMELSSLRSEDTAVYYCATRQFDYWGQGTLVTVSS", "VL": "QSVLTQPPSVSAAPGQKVTISCSGSSSNIGNNYVSWYQQLPGTAPKLLIYENNKRPSGIPDRFSGSKSGTSATLGITGLQTGDEADYYCGTWDSSLSAAVFGGGTKVTVL"}},
  "biological_target": "human Claudin 18.2 (human) (UniProt P56856)",
  "assay": "flow cytometry, antibody dilution series on hCLDN18.2-expressing MiaPaCa-2 cells",
  "data": [
    {"binder": "B1", "values": [
      {"measurement": "EC50", "result": 7.2, "unit": "nM"}
    ]}
  ]
}
